Source: publication PMC8156467, “Disruption of YY1-EZH2 Interaction Using Synthetic Peptides Inhibits Breast Cancer Development” (Cancers, 2021)

How the values were obtained:
[1] = target: enhancer of zeste homolog 2 (EZH2), endogenous (human (endogenous in MDA-MB-231)) (UniProt Q15910)
[2] = target: Yin Yang 1 (YY1), endogenous (human (endogenous in MDA-MB-231)) (UniProt P25490)
Yin Yang 1 (YY1), endogenous (human (endogenous in MDA-MB-231)), sequence (P25490 whole entry): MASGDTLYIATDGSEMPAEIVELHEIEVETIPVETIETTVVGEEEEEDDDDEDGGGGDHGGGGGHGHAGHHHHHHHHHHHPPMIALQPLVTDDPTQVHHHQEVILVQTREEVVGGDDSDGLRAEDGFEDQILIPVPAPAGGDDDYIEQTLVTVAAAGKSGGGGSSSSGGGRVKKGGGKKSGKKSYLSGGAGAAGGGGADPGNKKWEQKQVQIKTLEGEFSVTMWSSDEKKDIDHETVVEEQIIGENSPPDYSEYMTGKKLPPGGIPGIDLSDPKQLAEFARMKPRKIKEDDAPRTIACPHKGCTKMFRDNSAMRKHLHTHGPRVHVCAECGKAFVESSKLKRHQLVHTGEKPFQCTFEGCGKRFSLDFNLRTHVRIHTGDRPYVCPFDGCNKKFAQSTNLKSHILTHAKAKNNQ

synthetic FITC-TAT-3×Glycine-OPB peptide, sequence (P25490 whole entry): as above
enhancer of zeste homolog 2 (EZH2), endogenous (human (endogenous in MDA-MB-231)), sequence (Q15910 whole entry): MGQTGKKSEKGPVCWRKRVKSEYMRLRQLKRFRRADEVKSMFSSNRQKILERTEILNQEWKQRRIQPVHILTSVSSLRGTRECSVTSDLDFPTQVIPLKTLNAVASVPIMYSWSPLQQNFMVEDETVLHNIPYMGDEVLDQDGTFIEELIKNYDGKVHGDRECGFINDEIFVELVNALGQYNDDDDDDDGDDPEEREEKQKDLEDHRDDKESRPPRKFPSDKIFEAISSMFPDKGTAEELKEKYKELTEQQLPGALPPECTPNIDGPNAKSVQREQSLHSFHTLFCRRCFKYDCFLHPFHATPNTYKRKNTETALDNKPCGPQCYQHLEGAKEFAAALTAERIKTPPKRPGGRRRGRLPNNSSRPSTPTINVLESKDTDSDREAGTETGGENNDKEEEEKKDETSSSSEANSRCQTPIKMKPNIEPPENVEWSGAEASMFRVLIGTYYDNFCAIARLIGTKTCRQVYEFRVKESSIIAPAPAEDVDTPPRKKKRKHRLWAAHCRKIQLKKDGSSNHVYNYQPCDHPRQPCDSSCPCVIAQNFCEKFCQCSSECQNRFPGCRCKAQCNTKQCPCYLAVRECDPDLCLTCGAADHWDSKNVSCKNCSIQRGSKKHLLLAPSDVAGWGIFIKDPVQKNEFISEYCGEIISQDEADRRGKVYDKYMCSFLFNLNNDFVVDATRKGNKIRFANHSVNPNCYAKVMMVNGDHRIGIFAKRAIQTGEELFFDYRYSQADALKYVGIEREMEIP

Work on “synthetic FITC-TAT-3×Glycine-OPB peptide (from UniProt P25490 201-226)” yielded an IC50 of cell viability (WST-1, 48 h) in MCF-7, MDA-MB-231 and MDA-MB-453 breast cancer cells; the peptide blocks YY1-EZH2 (m1 with m2) [1] of 20 µM.
Substance “synthetic FITC-TAT-3×Glycine-YPB peptide (from UniProt Q15910-2 493-519)” has an IC50 of cell viability (WST-1, 48 h) in MCF-7, MDA-MB-231 and MDA-MB-453 breast cancer cells; the peptide blocks YY1-EZH2 (m1 with m2) [2] of 20 µM.
